The values that follow come from patent CN108610419A.

Substitutions are numbered along the chain they refer to.

As usually defined, the Kd is the equilibrium constant for the complex coming apart. High values mean lower affinity, low ones higher affinity.

The labels stand for the following.
B1: m14C5B (antibody, mouse IgG1, V domains shown)
VH: EVQLQQSGPELEKPGASVKISCRTSGYSFTMYNINWVKQTNGKSLEWIGNLDAYYGGSNYNPKFKDKATLTVDISSNTAFMQLWSLTSEDSAVYYCTRILWSRDFYTMDYWGRGTSVTVSS
VL: DIQVTQTSSSLSASLGDRVTITCRTSQDISNYLHWYQQTPDGTVKLLIYSTSTGHSGVPSRFSGSGSGTDYSLTISNLEQEDIATYFCQQSYTLAYTFGGGTKLEIKR
B2: hu14C5B (antibody, V domains shown, not shown: a dimerising Fc or GST)
VH: EVQLVESGGGLVQPGGSLRLSCAASGYSFTMYNINWVKQAPGKGLEWIGNLDAYYGGSNYNPKFKDKATLSRDNSKNTAYLQMNSLRAEDTAVYYCTRILWSRDFYTMDYWGQGTLVTVSS
VL: DIQVTQSPSSLSASVGDRVTITCRTSQDISNYLHWYQQKPGKAPKLLIYSTSTGHSGVPSRFSGSGSGTDFTLTISSLQPEDFATYFCQQSYTLAYTFGQGTKVEIKR
B3: hu14C5B-6 (antibody, V domains shown, not shown: a dimerising Fc or GST)
VH: B2 VH with Y27F, S28T, T30S, M31L, A53P, F105Y
VL: B2 VL with G54L, A95P
B4: hu14C5B-2 (antibody, V domains shown, not shown: a dimerising Fc or GST)
VH: B2 VH with Y27F, S28T, T30S, M31L, A53P, F105Y
VL: B2 VL with G54A, A95L
B5: hu14C5B-5 (antibody, human IgG1, kappa, V domains shown)
VH: B2 VH with Y27F, S28T, T30S, M31A, A53P, F105Y
VL: B2 VL with G54L, A95P
B6: hu14C5B-1 (antibody, V domains shown, not shown: a dimerising Fc or GST)
VH: B2 VH with Y27F, S28T, T30S, M31A, A53P, F105Y
VL: B2 VL with G54A, A95L

For the test, the target named is 重组人HER2蛋白的胞外区 (rHER2-ECD) (human) (UniProt P04626). In words: SPR (BIACORE3000), rHER2-ECD coupled to CM5 chip, antibody in flow, 25 °C. For orientation: In SPR one partner is held on a chip, and binding of the other changes the refractive index at the surface.
The molecule B1 yielded a Kd of 0.295 nM. As for B2, the figure is 0.242 nM; as for B3, 4.62 nM; as for B4, 31.5 nM.

For B5, the Kd amounted to 0.186 nM. As for B6, the Kd was 8.53 nM.
